In patent US20240254254:

B1: TAP1 NBD of SEQ ID NO:87 with a peptide comprising a SpyTag3, TEV protease site and a His tag attached at the C-terminus (protein)
chain: MPPSGLLTPLHLEGLVQFQDVSFAYPNRPDVLVLQGLTFTLRPGEVTALVGPNGSGKSTVAALLQNLYQPTGGQLLLDGKPLPQYEHRYLHRQVAAVGQEPQVFGRSLQENIAYGLTQKPTMEEITAAAVKSGAHSFISGLPQGYDTEVDEAGSQLSGGQRQAVALARALIRKPSVLILDNATSALDAGNQLRVQRLLYESPERYSRSVLLITQHLSLVEQADHILFLEGGAIREGGTHQQLMEKKGSYWAMVQAPADAPE
B2: human TAP1 NBD comprising N676G, S677N, Q680R, E682Q and Q683R substitutions, substitutions of cysteines with serines (SEQ ID NO:10) and a C-terminal His tag (protein)
chain: GLLTPLHLEGLVQFQDVSFAYPNRPDVLVLQGLTFTLRPGEVTALVGPNGSGKSTVAALLQNLYQPTGGQLLLDGKPLPQYEHRYLHRQVAAVGQEPQVFGRSLQENIAYGLTQKPTMEEITAAAVKSGAHSFISGLPQGYDTEVDEAGSQLSGGQRQAVALARALIRKPSVLILDNATSALDAGNQLRVQRLLYESPERYSRSVLLITQHLSLVEQADHILFLEGGAIREGGTHQQLMEKKGSYWAMVQAPADAPE

Assays:
[1] = size exclusion chromatography (Superdex S200 Increase) in 1 mM ADP buffer
[2] = size exclusion chromatography (Superdex S200 Increase) in 1 mM ATP buffer
[3] = size exclusion chromatography in 1 mM ADP (monomer state)
[4] = size exclusion chromatography in 1 mM ATP (dimer state)

Protein	elution volume (SEC) in 1 mM ADP [1]	elution volume (SEC) in 1 mM ATP [2]	effective molecular weight (SEC) in 1 mM ADP [3]	effective molecular weight (SEC) in 1 mM ATP [4]
B1	the ADP sample eluted at 16.81 ml	The ATP-containing sample eluted at a volume of 15.75 ml		
B2			in the presence of ADP the protein chromatographs with an effective molecular weight of 37 kDa	in the presence of ATP the protein chromatographs with an effective molecular weight of 57 kDa
